Measured values as given in patent US20160376333A1 (University of Washington, published 2016).
Substitutions are numbered along the chain they refer to.

Columns and labels:
[1] = target: T1, human Mcl-1 a.a. 172-327 with C-terminal avi-6his tag (human); test: yeast surface display titration (apparent KD)
T1 chain: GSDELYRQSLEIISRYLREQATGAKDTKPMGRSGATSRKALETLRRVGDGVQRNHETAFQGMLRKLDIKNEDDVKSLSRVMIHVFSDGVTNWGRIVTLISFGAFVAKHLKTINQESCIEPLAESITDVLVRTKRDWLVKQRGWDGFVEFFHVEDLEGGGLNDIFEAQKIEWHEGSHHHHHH

[2] = target: T2, human Bfl-1 a.a. 1-153 (C4S) with C-terminal avi-6his tag (human); test: yeast surface display titration (apparent KD)
T2 construct: also called A1/Bfl-1
T2 chain: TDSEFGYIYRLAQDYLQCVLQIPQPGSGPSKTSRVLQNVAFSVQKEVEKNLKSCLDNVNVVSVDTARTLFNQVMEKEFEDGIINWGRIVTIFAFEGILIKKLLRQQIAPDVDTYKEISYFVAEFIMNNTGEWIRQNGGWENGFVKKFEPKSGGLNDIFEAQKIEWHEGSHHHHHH

[3] = target: T3, human Bcl-2 a.a. 1-207 with C-terminal avi-6his tag (human, UniProt P10415 2-207); test: yeast surface display titration (apparent KD)
[4] = target: T4, human Bcl-w a.a. 1-182 with C-terminal avi-6his tag (human, UniProt Q92843 1-182); test: yeast surface display titration (apparent KD)
T4 construct: range 1-182; also called BCL2L2
T4 sequence: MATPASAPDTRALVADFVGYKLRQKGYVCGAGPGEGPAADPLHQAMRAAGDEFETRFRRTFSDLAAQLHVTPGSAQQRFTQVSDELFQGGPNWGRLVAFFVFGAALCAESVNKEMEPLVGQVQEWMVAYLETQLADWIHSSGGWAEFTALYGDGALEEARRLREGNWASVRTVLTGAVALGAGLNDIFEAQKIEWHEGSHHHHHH

[5] = target: T5, human Bcl-XL a.a. 1-205 with C-terminal avi-6his tag (human, UniProt Q07817 2-206); test: yeast surface display titration (apparent KD)
T5 construct: also called BCL2L1

[6] = target: T3, human Bcl-2 a.a. 1-207 with C-terminal …; test: BLI at a single analyte concentration (50 nM, 600 s association, then buffer); biotinylated BCL2 protein on a streptavidin sensor
[7] = target: T4, human Bcl-w a.a. 1-182 with C-terminal …; test: as above
[8] = target: T1, human Mcl-1 a.a. 172-327 with …; test: as above
[9] = target: T5, human Bcl-XL a.a. 1-205 with C-terminal …; test: as above
[10] = target: T6, Epstein-Barr virus BHRF1 a.a. 1-161 with C-terminal avi-6his tag (Epstein-Barr virus); test: yeast surface display
T6 construct: also called EBV BHRF1; BHRF1-biotin
T6 chain: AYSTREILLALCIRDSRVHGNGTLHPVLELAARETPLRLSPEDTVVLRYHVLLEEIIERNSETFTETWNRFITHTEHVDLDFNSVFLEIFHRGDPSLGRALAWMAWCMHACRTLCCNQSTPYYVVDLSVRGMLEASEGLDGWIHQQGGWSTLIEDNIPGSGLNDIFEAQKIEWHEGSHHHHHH

[11] = target: T6, Epstein-Barr virus BHRF1 a.a. 1-161 …; test: yeast display library, FACS sort at 100 nM BHRF1, deep sequencing
[12] = target: T6, Epstein-Barr virus BHRF1 a.a. 1-161 …; test: yeast display library, FACS sort at 400 nM BHRF1, deep sequencing
[13] = target: T4, human Bcl-w a.a. 1-182 with C-terminal …; test: initial BLI screening (column 'Binds target?')
[14] = target: T3, human Bcl-2 a.a. 1-207 with C-terminal …; test: ratio of the KD of the next tightest BCL2 protein to the KD of the target, BLI
[15] = target: T3, human Bcl-2 a.a. 1-207 with C-terminal …; test: BLI, biotinylated target on streptavidin sensor, range of analyte concentrations
[16] = target: T4, human Bcl-w a.a. 1-182 with C-terminal …; test: as above
[17] = target: T5, human Bcl-XL a.a. 1-205 with C-terminal …; test: as above
Target sequence in this assay (Q07817 other isoform, or with tags, fused parts or gaps limits assumed): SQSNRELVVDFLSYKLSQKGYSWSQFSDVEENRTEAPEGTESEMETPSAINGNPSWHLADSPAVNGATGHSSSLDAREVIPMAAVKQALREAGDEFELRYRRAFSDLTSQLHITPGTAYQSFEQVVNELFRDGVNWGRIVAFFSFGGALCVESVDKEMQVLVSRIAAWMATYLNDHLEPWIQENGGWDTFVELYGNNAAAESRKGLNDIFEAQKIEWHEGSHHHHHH

[18] = target: T2, human Bfl-1 a.a. 1-153 (C4S) with …; test: ratio of the KD of the next tightest BCL2 protein to the KD of the target, BLI
[19] = target: T1, human Mcl-1 a.a. 172-327 with …; test: BLI, biotinylated target on streptavidin sensor, range of analyte concentrations
[20] = target: T2, human Bfl-1 a.a. 1-153 (C4S) with …; test: as above
[21] = target: T7, human Bcl-B a.a. 11-175 with C-terminal avi-6his tag (human); test: as above
T7 construct: also called BCL2L10
T7 chain: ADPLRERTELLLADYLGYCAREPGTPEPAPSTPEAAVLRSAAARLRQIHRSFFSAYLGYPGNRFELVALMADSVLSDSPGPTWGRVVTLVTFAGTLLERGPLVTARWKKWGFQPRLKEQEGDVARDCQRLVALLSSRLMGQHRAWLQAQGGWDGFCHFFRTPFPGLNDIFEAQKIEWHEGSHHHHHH

B1: BbpD04.3 (designed binder)
chain: ADWKKVLDKAKDIAENRVRELKQKLEEFYKEAMKLDLTQEMRRKLMLRWIAAMLMAIGDIFNAIRQAKQEADKLKKAGLVNSQQLDELKRRLEELKEEASRKARDYGREFQLKLEY
For B1, the Kd [1] was 19 nM and the Kd [2] was 32 nM.

B2: BbpD04.1 (designed binder)
chain: B1 chain with L21I, L79Q, Q84L, A103C, R104H
B2 was tested, and the Kd [3] was 110 nM, the Kd [4] was 14 nM and the Kd [1] was 30 nM. The Kd [5] was 25 nM.

B3: M-CDP02 (designed binder)
chain: ADPKKVLDKAKDQAENRVRELKQELEELYKEARKLDLTQEERRKLEESYIAAMLRAIGDIFNAIMQAKNEADKLKKAGLVNSQQLDELRRRLEELRKEASLKAEDYGREFQEKLEY
B3: binds [6]; binds [7]; binds [8]. B3: binds [9].

B4: Index 47 (designed binder)
chain: GWSADWIKDQAKELMLRAAEEMKKRADEEEKKFKYKQFTTEFLTKATMRWIALALMAIGDVFNVLMWALEWAKRMAKLNQYRKEELEKAKEEAKKLAEKAARRITEIGREAEQKALKG
With B4 the binding result [10] was “no binding”, the Log2 enrichment ratio [11] was -3.13 log2 and the Log2 enrichment ratio [12] was -2.79 log2.

B5: Index 67 (designed binder)
chain: GNRSEEVKELMRELAERVLLKFRWRADEMNKEKDKKYDKEELKRELTEKWIAFALDAIGDLFNAAELAKKLADLFKKGTGFLEERLERRKEEIEKLEEKGSRKVSYEGRREAEKIESG
For B5, the binding result [10] was “no binding”, the Log2 enrichment ratio [11] was -3.48 log2 and the Log2 enrichment ratio [12] was -3.44 log2.

B6: W-CDP01 (designed binder)
chain: DPKKVFDKAKDKAENQVRYLKQRLEELYKEARKKDLTQEQRRKLKEKYLAAKLAAILAAIGDAFNALAEARELHKQGKVNKQQLDELAKRLDRLAEEAIQKAEDYAREFAYKLEY
B6: binds [13].

B7: W-CDP02 (designed binder)
chain: DPKKVLDKARDQALKRLEEMRKKLEESYKEARKKDLTQEERRKLEEKYAEAMKRAAEDIYNMIQQALKEAEKEKKAGQVNSQQLDKLREDLNNKLIAAALAAIGDAFNMAANLRT
B7: binds [13].

B8: 2-INDI (designed binder)
chain: ADPKKVLDKAKDEAENRVRELKQRLEELYKEARKLDLTQEMRQELVDKARAASLQANGDIFYAILRALAEAEKLKKAGLVNSQQLDELKRRLEELAEEARRKAEKLRDEFRLKLEY
notes: also called αBCL2
For B8, the Specificity [14] was 2210 fold, the Kd [15] was 0.839 nM and the Kd [16] was 1850 nM. For the same binder, the Kd [17] was 3500 nM.

B9: 2-CDP06 (designed binder)
chain: B8 chain with R24K, N57S, R107G
In the case of B9, the Specificity [14] is reported as 190 fold, the “apparent Kd (pooled screen)” value [15] is reported as 8.9 nM and the Kd [16] is reported as 1670 nM. The Kd [17] was 12000 nM.

B10: F-CDP01 (designed binder)
chain: ADPKKVLDKAKDQAENRVRELKQKLEELYKEARKLDLTQEMRKKLQYAAIGAMLAAIGDILNAIMQAKQEADKLKKAGLVNSQQLDELKRRLEELKEEALRKAHDYGSEFYLKLEY
Work on B10 yielded a Specificity [18] of 1.8 fold, a Kd [15] of 20 nM and a Kd [16] of 590 nM. For the same binder, the Kd [19] was 4.6 nM, the “apparent Kd (pooled screen)” value [20] was 2.6 nM and the Kd [17] was 9 nM. It also gave a Kd [21] of 210000 nM.

B11: Index 15 (designed binder)
chain: GNDRDQIEEYHRERMDEELDRAKKRLEELKKLWEKLDGDDLMKFFWTFKWIAESLKIIGDLFNRLLRTWEFAEALKKGIGFDEKKAEEAKERAYERAAEAAWKAAKLSREMREFLLKG
With B11 the binding result [10] was “no binding”, the Log2 enrichment ratio [11] was -2.77 log2 and the Log2 enrichment ratio [12] was -0.71 log2.
